Results taken from article PMC11697113, “The Hsc70 system maintains the synaptic SNARE protein SNAP-25 in an assembly-competent state and delays its aggregation [drawing 1]” (The Journal of Biological Chemistry, 2024).

B1: Apg2: nucleotide exchange factor, member of the Hsp110 family (protein, UniProt P34932 1-840, looked up)
Heat shock 70 kDa protein 4: MSVVGIDLGFQSCYVAVARAGGIETIANEYSDRCTPACISFGPKNRSIGAAAKSQVISNAKNTVQGFKRFHGRAFSDPFVEAEKSNLAYDIVQLPTGLTGIKVTYMEEERNFTTEQVTAMLLSKLKETAESVLKKPVVDCVVSVPCFYTDAERRSVMDATQIAGLNCLRLMNETTAVALAYGIYKQDLPALEEKPRNVVFVDMGHSAYQVSVCAFNRGKLKVLATAFDTTLGGRKFDEVLVNHFCEEFGKKYKLDIKSKIRALLRLSQECEKLKKLMSANASDLPLSIECFMNDVDVSGTMNRGKFLEMCNDLLARVEPPLRSVLEQTKLKKEDIYAVEIVGGATRIPAVKEKISKFFGKELSTTLNADEAVTRGCALQCAILSPAFKVREFSITDVVPYPISLRWNSPAEEGSSDCEVFSKNHAAPFSKVLTFYRKEPFTLEAYYSSPQDLPYPDPAIAQFSVQKVTPQSDGSSSKVKVKVRVNVHGIFSVSSASLVEVHKSEENEEPMETDQNAKEEEKMQVDQEEPHVEEQQQQTPAENKAESEEMETSQAGSKDKKMDQPPQAKKAKVKTSTVDLPIENQLLWQIDREMLNLYIENEGKMIMQDKLEKERNDAKNAVEEYVYEMRDKLSGEYEKFVSEDDRNSFTLKLEDTENWLYEDGEDQPKQVYVDKLAELKNLGQPIKIRFQESEERPKLFEELGKQIQQYMKIISSFKNKEDQYDHLDAADMTKVEKSTNEAMEWMNNKLNLQNKQSLTMDPVVKSKEIEAKIKELTSTCSPIISKPKPKVEPPKEEQKNAEQNGPVDGQGDNPGPQAAEQGTDTAVPSDSDKKLPEMDID
B2: CSPαJ: J-domain (residues 1–100) of human CSPα (protein, UniProt Q9H3Z4 1-100, looked up, fragment)
chain: MADQRQRSLSTSGESLYHVLGLDKNATSDDIKKSYRKLALKYHPDKNPDNPEAADKFKEINNAHAILTDATKRNIYDKYGSLGLYVAEQFGEENVNTYFV
modifications: J-domain
notes: J-domain (residues 1–100) of human CSPα

Columns and labels:
[1] = SNAP-25 aggregation kinetics by optical density; assay type: biochemical; settings: without SNAP-25, 37 °C
Procedure: (§1) To test our hypothesis that Hsc70 inhibits SNAP-25 aggregation, we monitored the aggregation kinetics of recombinantly expressed SNAP-25 in the absence and presence of Hsc70 by following optical density at 360 nm (Fig. 2). […] This lag time was elongated to ∼65 h in the presence of Hsc70. In neurons, Hsc70 works in collaboration with its co-chaperone CSPα. […] (Fig. S2A). Apg2 is a member of the Hsp110 family, which is known to suppress protein aggregation ([36]). […] (Fig. S2B).
(§2) Figure 2 Hsc70 delays the aggregation of SNAP-25. Aggregation kinetics of SNAP-25 (50 μM) at 37 °C. Optical density of SNAP-25 was recorded at 360 nm in the absence (black) and in the presence of Hsc70 (5 μM, red), and Hsc70+CSPαJ (5 μM each, blue).
(§3) Aggregation of SNAP-25 at 50 μM was followed by measuring the A360 in a 96-well plate using a BioTek plate reader (BioTek), at 37 °C with shaking at 300 rpm, in the absence and presence of Hsc70 and CSPαJ at 5 μM each, and Apg2 at 0.5 μM. The aggregation buffer included 20 mM phosphate buffer pH 7.4, 100 μM MgCl2, and 100 mM KCl, and an ATP-experiment was carried out using regeneration system (5 mM 2-phosphoenolpyruvate, 0.05 mg/ml pyruvate kinase, and 5 mM ATP), as described previously ([51]).
(§4) Figure SI 2. Apg2 enhances the effect of Hsc70 on SNAP-25. (A) Aggregation kinetics of SNAP-25 (50 μM) at 37 °C. OD600 of SNAP-25 was recorded in the absence (black) and in the presence of Hsc70, Hsc70+CSPa-J (blue) and Hsc70+CSPa-J+Apg2 (turquoise). […]
(§5) concentrations are SNAP-25 (50 μM), Hsc70 (5 μM), CSPa-J (5 μM) and Apg2 (0.5 μM).
(§6) (B) Aggregation kinetics of SNAP-25 (50 μM) at 37 °C. OD600 of SNAP-25 was recorded in the absence (black) and in the presence of Apg2 (blue). […]

[2] = tested on: SNAP-25; assay: SNAP-25 aggregation kinetics by optical density; assay type: biochemical; settings: SNAP-25 50 μM
Procedure: as §1, §2, §3, §4, §5, §6

[3] = target: T1, Hsc70 (Homo sapiens, UniProt P11142); assay: ATPase activity of Hsc70 (malachite green); assay type: biochemical; settings: for ATPase activity of co-chaperone alone: baseline, protein alone without Hsc70
T1 construct: 6X His-tag (TEV-cleavable) (cleaved yes); made in house; host or cells: E. coli Rosetta (DE3)
Excerpt: Hsp70s consist of an nucleotide-binding domain (NBD) and a substrate-binding domain (SBD). Hsc70 works using an allosteric mechanism whereby substrate binding at the SBD stimulates the ATP hydrolysis rate at the nucleotide-binding domain. The basal ATPase rate of Hsp70 is low, usually about 0.05 ± 0.009 mol Pi/mol protein, and increases when it is stimulated by binding of a peptide to the canonical site in the SBD. We measured the ability of SNAP-25 peptides SNNP and SNCP to stimulate the ATPase rate of Hsc70 (Fig. 5A). SNNP and SNCP binding cause a 1.5-fold increase of the Hsc70 ATPase rate over basal (observed rates upon addition of SNNP and SNCP were 0.089 ± 0.008 and 0.080 ± 0.005, respectively). In order to confirm that peptides are indeed binding at the canonical binding site of Hsc70, we used the V438F mutant that blocks the binding site ([37]). […] The addition of CSPαJ stimulates the ATPase activity of Hsc70 ∼4-fold with and without peptides.
Figure 5 SNN and SNC peptides interact with the canonical substrate-binding site of Hsc70.A, ATPase activity of Hsc70 (2 μM) in the absence (gray) and presence of 200 μM SNNP (orange) and SNCP (green) peptides. Error bars represent the SDs from three independent experiments. B, binding of SNAP-25 (black), SNNP (orange), LoopP (blue), and SNCP (green) peptides to Hsc70 followed by competition for FITC-p5 peptide using fluorescence anisotropy. Increasing concentrations of the competitors were added to a complex of Hsc70 (5 μM) and FITC-p5 peptide (50 nM). Error bars represent SDs from three independent experiments. C, structure of the canonical substrate-binding site of human HspA1 (PDB 4po2) illustrating the location of Hsc70 residues Ile 403 and Ile 440 in red and green spheres, respectively (N.B., Hsc70 and HspA1 share […] sequence identity). The SBD is shown in gray, bound substrate in cyan sticks, and the side chain of the residue occupying the 0th position in the chaperone (“anchor residue”) in orange ball and sticks. For better visualization of the substrate-binding site, residues 512 to 613, 405 to 408, and 431 were removed in this illustration of the structure. […]
We performed ATPase assays to observe the activity of Hsc70 in the presence of SNAP25 peptides. […] Absorbance readings were taken at 620 nm using a BioTek plate reader. […]
(C) ATPase activity of Hsc70 (at 2 μM) in the absence (grey) and presence of 200 μM SNNP (orange) and L(Loop)-SNCP (green) peptides, and in the absence and presence of CSPa-J and CSPa-J/Apg2. The statistical significance was calculated using one-way ANOVA test with Sidak’s multiple comparison and the Hsc70 ATPase activity […]

[4] = target: T1, Hsc70; assay: SNAP-25 cellulose-bound peptide array probed with Hsc70; assay type: binding; settings: Hsc70 with CSPαJ vs Hsc70 alone
Excerpt: To explore in greater depth the binding sites for Hsc70 in SNAP-25, we screened a cellulose-bound peptide array spanning the full SNAP-25 sequence with 13-residue long peptides, overlapping by ten residues, and probed with Hsc70 in the presence of a two-fold excess of ATP and ten-fold excess of ADP. The binding of Hsc70 to sites in the array was then visualized with an anti-Hsc70 primary antibody and a horse radish peroxidase-tagged secondary antibody to enable visualization by chemiluminescence (Fig. 4A). To quantitatively analyze the array, we used ImageJ (https://imagej.net/ij/) and plotted the intensity under the area for each spot. […] One site is located in the SNN, one in the LOOP, and one in the LOOP-SNC region (called SNC site) (Fig. 4A) […] (Fig. 1C). […] The binding site in the LOOP region is very close to the cysteine residues that become palmitoylated as SNAP-25 moves to its membrane-localized state. It is formally possible that Hsc70 binds to SNAP-25 in the initial un-palmitoylated state and dissociates upon palmitoylation and association with the plasma membrane. […]
B, quantification of the spots from Figure 4A using ImageJ (Hsc70 (gray) and Hsc70-CSPαJ (dark gray)). […]
A peptide array of SNAP-25 was obtained from CEM corporation. […] The chemiluminescence was captured in a G-box (Syngene), and the images were analyzed using ImageJ.

[5] = OD600 (Fig. S2A), Hsc70 5 μM, CSPa-J 5 μM, Apg2 0.5 μM

T1 sequence (P11142 whole entry): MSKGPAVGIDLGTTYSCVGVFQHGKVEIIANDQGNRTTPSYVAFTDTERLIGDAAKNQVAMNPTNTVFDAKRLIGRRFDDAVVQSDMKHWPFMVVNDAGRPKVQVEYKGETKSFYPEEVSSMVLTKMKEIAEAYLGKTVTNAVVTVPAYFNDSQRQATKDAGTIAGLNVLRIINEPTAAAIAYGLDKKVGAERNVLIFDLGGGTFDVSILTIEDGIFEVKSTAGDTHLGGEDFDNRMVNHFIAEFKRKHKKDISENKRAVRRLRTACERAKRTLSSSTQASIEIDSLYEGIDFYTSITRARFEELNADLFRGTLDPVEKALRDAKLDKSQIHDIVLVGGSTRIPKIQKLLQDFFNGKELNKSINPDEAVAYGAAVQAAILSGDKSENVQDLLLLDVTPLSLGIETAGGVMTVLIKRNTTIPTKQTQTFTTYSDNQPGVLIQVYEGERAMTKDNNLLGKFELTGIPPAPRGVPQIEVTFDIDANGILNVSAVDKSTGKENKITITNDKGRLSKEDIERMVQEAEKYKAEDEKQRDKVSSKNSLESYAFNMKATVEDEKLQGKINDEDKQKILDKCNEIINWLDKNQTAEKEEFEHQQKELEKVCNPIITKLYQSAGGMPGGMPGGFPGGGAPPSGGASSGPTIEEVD

Molecule | aggregation of the chaperone alone [1, 5] | effect of Apg2 alone on SNAP-25 aggregation ([2]; Apg2 without Hsc70/CSPαJ, 37 °C (Fig. S2B)) | effect of Apg2 on SNAP-25 aggregation kinetics with Hsc70-CSPαJ ([2]; Hsc70 5 μM, CSPαJ 5 μM, Apg2 0.5 μM, 37 °C (Fig. S2A)) | effect of Apg2 on Hsc70 ATPase activity ([3]; Hsc70 2 μM with CSPαJ, with Apg2 (Fig. S2C)) | ATPase activity of co-chaperone alone [3] | aggregation of the chaperone alone ([1]; OD 360 nm (Fig. 2)) | effect of CSPαJ on lag time of SNAP-25 aggregation with Hsc70 ([2]; Hsc70 and CSPαJ 5 μM each, 37 °C, OD 360 nm) | effect of CSPαJ on specificity of Hsc70 binding to SNAP-25 array [4] | stimulation of Hsc70 ATPase activity by CSPαJ ([3]; Hsc70 2 μM, with and without peptides) [fold]
B1 | exhibit no aggregation | no significant effect | further elongated | not further increased | no ATPase activity | – | – | – | –
B2 | exhibit no aggregation | – | – | – | no ATPase activity | no aggregation | elongates the lag time of SNAP-25 aggregation | does not change the specificity of Hsc70 binding to SNAP-25 | ~4
